The results in this text go back to patent US6737058B2, “Methods for inhibiting endothelial cell and fibrinogen mediated inflammation using fibrinogen specific antibodies” (The Scripps Research Institute, priority 1992, dated 2004).

No end group written: not given here.

One experiment relates to WT CHO cells. Description: 125I-labeled γ3 binding to wild type CHO cells. To be noted: 50 μg/ml. Also noted: species or system Chinese Hamster. The protocol: Confluent monolayers of ICAM-1 CHO transfectants or wild type (WT) CHO cells were incubated in serum-free RPMI 1640 medium with increasing concentrations of ^125I-labeled γ3 peptide (10-150 μg/ml) in the presence of 1 mM CaCl2 and 1 mM MgCl2 for 45 min at 22° C. Cells were washed with three rapid changes of serum-free RPMI 1640, solubilized in 10% SDS, and radioactivity associated under the various conditions tested was quantitated in a beta-counter. Non specific binding was assessed in the presence of a 100-fold molar excess unlabeled γ3 peptide, or control peptide L10 added at the start of incubation, and was subtracted from the total as described above.

A further experiment has as its target ICAM-1 (Homo sapiens, UniProt P05362). In words: 125I-labeled γ3 binding to ICAM-1 CHO transfectants. The protocol:
A variant polypeptide γ3 (KYG-γ3) duplicating the fibrinogen γ chain sequence 117-133 N^117NQKIVNLKEKVAQLEA^133 (SEQ ID NO 2) was synthesized with the addition of Lys-Tyr-Gly residues at the amino terminus to facilitate radiolabeling of the polypeptide (KYGN^117NQKIVNLKEKVAQLEA^133, SEQ ID NO 4). The variant γ3 and L10 polypeptides were synthesized as described in Example 7A. Typically, 2 mg of KYG-γ3 were iodinated with 5 mCi ^125I-Na (Amersham, Arlington Heights, Ill.) by the IODO-GEN method (Fraker et al., Biochem Biophys Res Commun., 80:849-857, (1978)) for 45 min at 4° C. Free radioactivity was separated from polypeptide-bound radioactivity by gel-filtration over a Bio-Gel P-2 column (Bio-Rad, Richmond, Va.) which had been preequilibrated with PBS, pH 7.2, containing 0.01% BSA, with a flow rate of 0.2 ml/sec.
Confluent monolayers of ICAM-1 CHO transfectants or wild type (WT) CHO cells were incubated in serum-free RPMI 1640 medium with increasing concentrations of ^125I-labeled γ3 peptide (10-150 μg/ml) in the presence of 1 mM CaCl2 and 1 mM MgCl2 for 45 min at 22° C. Cells were washed with three rapid changes of serum-free RPMI 1640, solubilized in 10% SDS, and radioactivity associated under the various conditions tested was quantitated in a beta-counter. […]

Experiment [1] deals with T1, ICAM-1 receptor on JY lymphocytes (Homo sapiens, UniProt P05362).
T1 construct: endogenous in cells; host or cells: JY lymphocytes (51Cr-labelled)
In words: Inhibition of JY lymphocyte adhesion to γ3-coated plates by monoclonal antibodies. Type of experiment: cell-based. To be noted: plates coated with 20 μ/ml peptide, no antibody. As for the experimental part: Binding inhibition assays were performed using radiolabeled ICAM-1^+ JY lymphocytes and the γ3 polypeptide. […] The peptides used in this assay were the γ3 and irrelevant polypeptide L10 prepared as described in Example 7A.
Ninety-six well assay plates were coated with 20 μ/ml of the polypeptides γ3 and L10 and the ^51Cr-labeled JY lymphocytes were prepared as described above. The ^51Cr-labeled JY lymphocytes were preincubated with saturating concentrations (25 μg/ml) of monoclonal antibodies anti-ICAM-1 1G12, 2D5, or 6E6; or anti-EPR-1 6A11 before incubation in the […] plates. Binding of radiolabelled JY lymphocytes was measured after a 45 min maintenance period in the presence of the monoclonal antibodies in the γ3 peptide-coated plate. Background binding was assessed by the incubation of ^51Cr-labeled JY lymphocytes which had not been preincubated with a monoclonal antibody in the L10 peptide-coated plate. Data are the mean ± S.D. of replicates of two independent experiments.

For a further experiment, the system named is ICAM-1+ JY lymphocytes. Description: Adhesion of 51Cr-labeled JY lymphocytes to peptide-coated wells. Format: cell-based. To be noted: wells coated with 1-100 μg/ml peptide, 45 min at 37° C. The protocol: Ninety-six well assay plates (Costar, Cambridge, Mass.) were coated with increasing concentrations (1-100 μg/ml) of the polypeptides γ3 and L10 in PBS, pH 7.2, for 18 h at 4° C. Wells were washed in PBS, pH 7.2 and blocked with 3% gelatin for 60 min at 37° C.
Serum-free suspensions of JY lymphocytes were labeled with 0.5 mCi ^51Cr (Na2CrO4, specific activity 487.4 mCi/mg, E. I., DuPont de Nemours, Wilmington, Del.) for 2 h at 37° C., with a final incorporation of 0.2-4 cpm/cell (Languino, et al., supra). Aliquots of ^51Cr-labeled JY lymphocytes at 1×10^6/ml were added to peptide-coated wells for 45 min at 37° C., washed, solubilized in 20% SDS, and radioactivity associated under the various conditions was determined in a scintillation beta-counter. The number of attached cells was quantitated by dividing the cpm harvested by the cpm/cell. Data are the mean ± S.D. of two independent experiments.

The test system of experiment [2] is HUVEC. Description: Adhesion of terminally-differentiated 51Cr-labeled HL-60 cells to resting HUVEC with plasma adhesive proteins. The note with it: for adhesion of differentiated HL-60 cells to HUVEC relative to cells not equilibrated with an adhesive protein: 150 μ/ml protein, fMLP 10 μM, 30 min at 22° C. Format: cell-based, human. As for the experimental part: The effect of fibrinogen, vitronectin, and fibronectin on the interaction of terminally-differentiated HL-60 and monocytic THP-1 cells with HUVEC was determined as described in Languino, supra. Briefly, serum-free suspensions of HL-60 or THP-1 cells were labeled with ^51Cr as described in Example 81A to a final incorporation of 0.2-4 cpm/cell. After washes in PBS, pH 7.2, aliquots of the HL-60 cells were resuspended in serum-free RPMI 1640 at 1.5×10^6/ml and stimulated with 10 μM of the chemoattractant formyl-methionyl-leucyl-phenylalanine (fMLP, Sigma, St. Louis, Mo.) and equilibrated with 150 μ/ml fibrinogen, vitronectin, or fibronectin in the presence of 1 mM CaCl2 for 20 min at 22° C. Equilibrated HL-60 were added to resting HUVEC monolayers that had been previously incubated with fresh complete culture medium 12 hours prior to the experiment and incubated for an additional 30 min at 22° C., washed,solubilized in 10-20% SDS, and associated radioactivity determined in a scintillation β-counter. The number of attached cells was quantitated by diving the cpm harvested by the cpm/cell. Under these experimental conditions, there was no aggregation of the various leukocyte subpopulations in the presence of the different plasma adhesive proteins, nor disruption of the HUVEC monolayers at any time interval tested, as judged by routine microscopic examination of the adhesion field. Data are the mean ± S.D. of triplicates from a representative experiment.
Experimental conditions were the same as described in Example 9C1 except that the ^51Cr-labeled HL-60 cells were equilibrated with 40 μg/ml vitronectin or control protein transferrin and added to resting HUVEC for increasing time intervals between 10 and 60 minutes at 22° C. before measurement of leukocyte adhesion.
Experimental conditions were the same as described in Example 9C1 except that the ^51Cr-labeled HL-60 cells were equilibrated with several concentrations of vitronectin ranging from 1.84 to 150 μg/ml and prior to incubation to resting HUVEC.

For experiment [3], the system named is HUVEC. In words: Inhibition of 125I-labelled fibrinogen binding to HUVEC by cold fibrinogen, anti-VNR antibodies and RGD/RGE peptides. The arrangement: species or system human. The note with it: anti-VNR antibody 25 μg/ml, 20 minutes at 37° C. preincubation. The protocol:
Binding of ^125I-labelled fibrinogen binding to HUVEC assays were performed in the presence of 50 molar excess of unlabelled fibrinogen in order to confirm the specificity of binding as shown in Example 3A. The binding assay was performed as described in Example 3A with the exception that unlabelled fibrinogen was admixed to HUVEC at a 50 molar excess (approximately […] fibrinogen) concurrently with 50 μg/ml of ^125I-labelled fibrinogen. The protein-cell admixtures were maintained at 22° C. for 30 minutes to allow for binding of fibrinogen to HUVEC. In addition to cold fibrinogen, a 50 fold molar excess of BSA was separately admixed as a control. The amount of fibrinogen bound under the above conditions was quantitated as described in Example 3A. The uninhibited total binding of ^125I-labelled fibrinogen saturated after 30 minutes at approximately 4000 cpm per well. […] The binding of fibrinogen to the HUVEC surface fibrinogen receptor is therefore specific.
The specificity of binding to an RGD-independent fibrinogen receptor was confirmed in competition assays performed as described above in the presence of monoclonal antibodies against the beta subunit of the RGD-dependent VNR and in the presence of RGD-containing peptides. For the assays in which the ability of anti-VNR monoclonal antibodies, designated mAb 609 and mAb 7E3, to inhibit the binding of ^125I-labelled fibrinogen to HUVEC, the antibodies were separately maintained at a concentration of 25 μg/ml with HUVEC for 20 minutes at 37° C. After the maintenance period, the antibody-treated HUVEC were washed once with serum-free RPMI 1640 to remove any unbound antibody. Labelled fibrinogen was then admixed to the treated HUVEC at a concentration of 50 μg/ml in the presence of 2.5 mM CaCl2 and […] PPack. The resultant admixtures were maintained for 10-30 minutes at 22° C. The fibrinogen-treated HUVEC were then washed, solubilized and counted as described in Example 3A.
To confirm that the fibrinogen binding site on HUVEC was not RGD dependent, inhibition assays performed as described above for inhibiting with antibodies except that they were done in the presence of 1.0 mM of an RGD-containing peptide. A control RGE-containing peptide was also included in the assay. At selected time points over the time course of one hour, the HUVEC were harvested as described in Example 3A.

For experiment [4], the system named is HUVEC. In words: Iodinated D30 binding to HUVEC monolayers and its competition. Also noted: species or system human. To be noted: 50 fold molar excess of cold fibrinogen; myoglobin as nonspecific protein. The protocol: Binding assays described above in Example 3A2) were also performed with the fibrinogen homolog, D30, to determine if that region of fibrinogen also immunoreacted with HUVEC. Since D30 was known to bind to leukocytes via the Mac-1 receptor as described by Altieri et al., J. Biol. Chem., 265:12119-12122 (1990), these experiments were performed to determine if regions of fibrinogen mediating the binding of leukocytes to HUVEC are contained within the D30 fragment. For this analysis, the D30 fragment of fibrinogen prepared in Example 1B was labelled with ^125I as described for labelling of fibrinogen above. Iodinated D30 was admixed to HUVEC monolayers at a concentration of 10 μg/ml to form a binding complex. After washing the cells to remove the unbound D30 as described in Example 3A2) above, the cells were solubilized and the amount of bound radioactivity was determined. The binding of D30 to HUVEC was maximal at 120 minutes of the maintenance period with approximately 60,000 cpm.

Sequence of ICAM-1 (P05362 28-532): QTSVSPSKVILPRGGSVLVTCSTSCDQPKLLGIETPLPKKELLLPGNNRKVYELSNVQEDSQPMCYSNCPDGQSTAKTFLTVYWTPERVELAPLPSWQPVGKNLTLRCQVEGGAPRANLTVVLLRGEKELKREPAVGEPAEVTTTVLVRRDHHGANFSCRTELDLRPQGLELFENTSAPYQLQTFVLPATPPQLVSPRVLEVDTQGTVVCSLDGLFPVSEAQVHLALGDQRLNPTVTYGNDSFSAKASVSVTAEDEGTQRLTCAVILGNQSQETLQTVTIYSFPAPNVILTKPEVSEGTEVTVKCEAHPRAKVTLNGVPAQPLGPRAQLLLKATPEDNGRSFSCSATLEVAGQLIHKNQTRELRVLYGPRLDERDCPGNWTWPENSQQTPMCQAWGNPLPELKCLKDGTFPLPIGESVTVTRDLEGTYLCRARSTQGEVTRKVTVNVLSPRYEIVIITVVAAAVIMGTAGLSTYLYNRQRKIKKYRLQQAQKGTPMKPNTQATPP
T1 sequence (P05362 28-532): as above

For “KYGN^117NQKIVNLKEKVAQLEA^133 (KYGNNQKIVNLKEKVAQLEA; also: 125I radiolabel) [KYG-γ3]”, the “binding of 125I-labeled γ3 polypeptide to WT CHO cells” value in the experiment on WT CHO cells was “did not bind”. The “binding of 125I-labeled γ3 polypeptide to ICAM-1 CHO transfectants” value with ICAM-1 (10-150 μg/ml, 1 mM CaCl2 and 1 mM MgCl2, 45 min at 22° C.) is “bound to ICAM-1 CHO transfectants in a specific and dose-dependent fashion”.
Turning to “LGGAKQAGDV (OTHER INFORMATION: synthesized) [L10, reference compound]”, in experiment [1], the “JY lymphocyte adhesion to L10-coated plate (background)” value was “did not support significant JY lymphocyte adhesion”. For the same molecule, in the experiment on ICAM-1+ JY lymphocytes, the “adhesion of JY lymphocytes to immobilized peptide” value was “did not support lymphocyte adhesion at any concentration tested”.
On to “NNQKIVNLKEKVAQLEA (OTHER INFORMATION: synthesized) [γ3]”, for which the “adhesion of JY lymphocytes to immobilized peptide” value in the experiment with ICAM-1+ JY lymphocytes is listed as “strongly adhered”. Further, the “competition of 125I-labeled γ3 polypeptide binding” value with ICAM-1 (100-fold molar excess unlabeled peptide) is given as “competitively inhibited”.
Regarding fibronectin, the “adhesion of differentiated HL-60 cells to HUVEC relative to cells not equilibrated with an adhesive protein” value with HUVEC [2] is listed as “did not result in an increase in adhesion”.

B1: vitronectin: human vitronectin purchased from GIBCO or donated (protein, UniProt P04004 20-478, looked up)
Vitronectin: DQESCKGRCTEGFNVDKKCQCDELCSYYQSCCTDYTAECKPQVTRGDVFTMPEDEYTVYDDGEEKNNATVHEQVGGPSLTSDLQAQSKGNPEQTPVLKPEEEAPAPEVGASKPEGIDSRPETLHPGRPQPPAEEELCSGKPFDAFTDLKNGSLFAFRGQYCYELDEKAVRPGYPKLIRDVWGIEGPIDAAFTRINCQGKTYLFKGSQYWRFEDGVLDPDYPRNISDGFDGIPDNVDAALALPAHSYSGRERVYFFKGKQYWEYQFQHQPSQEECEGSSLSAVFEHFAMMQRDSWEDIFELLFWGRTSAGTRQPQFISRDWHGVPGQVDAAMAGRIYISGMAPRPSLAKKQRFRHRNRKGYRSQRGHSRGRNQNSRRPSRATWLSLFSSEESNLGANNYDDYRMDWLVPATCEPIQSVFFFSGDKYYRVNLRTRRVDTVDPPYPRSIAQYWLGCPAPGHL
Regarding B1, the “time and dose dependency of vitronectin-mediated increase in HL-60 adhesion” value in the experiment with HUVEC [2] (10 to 60 minutes, 1.84 to 150 μg/ml) was “time-and dose-dependent manner”. The “adhesion of differentiated HL-60 cells to HUVEC relative to cells not equilibrated with an adhesive protein” value with HUVEC [2] is reported as “three to four-fold”. Further, the vitronectin concentration at which increase in HL-60 adhesion was saturated with HUVEC [2] (vitronectin 1.84 to 150 μg/ml) was determined as 50 µg/mL.

B2: mAb 609: anti-VNR monoclonal antibody (antibody, V domains shown)
VH: EVQLEESGGGLVKPGGSLKLSCAASGFAFSSYDMSWVRQIPEKRLEWVAKVSSGGGSTYYLDTVQGRFTISRDNAKNTLYLQMSSLNSEDTAMYYCARHNYGSFAYWGQGTLVTVSA
VL: ELVMTQTPATLSVTPGDSVSLSCRASQSISNHLHWYQQKSHESPRLLIKYASQSISGIPSRFSGSGSGTDFTLSINSVETEDFGMYFCQQSNSWPHTFGGGTKLEIKRA
With B2, the “inhibition of 125I-labelled fibrinogen binding to HUVEC (FIG. 7)” value with HUVEC [3] is “no inhibitory effect”.

B3: Myoglobin: a nonspecific protein (protein, UniProt P68082 2-154, looked up)
Myoglobin: GLSDGEWQQVLNVWGKVEADIAGHGQEVLIRLFTGHPETLEKFDKFKHLKTEAEMKASEDLKKHGTVVLTALGGILKKKGHHEAELKPLAQSHATKHKIPIKYLEFISDAIIHVLHSKHPGDFGADAQGAMTKALELFRNDIAAKYKELGFQG
Turning to B3, the “competition of D30 binding to HUVEC” value in the experiment with HUVEC [4] was “did not inhibit”.
